How the values were obtained:
[1] = target: LY1 ORF1 ΔC-term (1-609) (Betatorquevirus isolate LY1 (TTMV-LY1)); assay: cryo-EM structure; Expi293-derived ΔC-term virus-like particles, 0.4 mg/ml, Titan Krios 300 kV, 2.69 Å
[2] = target: LY1 ΔARM fragment (ORF1 with residues 2-45 deleted, C-terminus removed by proteolysis in insect cells) (Betatorquevirus isolate LY1 (TTMV-LY1)); assay: cryo-EM structure; Sf9-derived ΔARM fragment virus-like particles, 0.3 mg/ml on graphene oxide grid, Glacios 200 kV, I1 symmetry, 3.9 Å

| Substance | stoichiometry N [1] | stoichiometry N [2] |
| --- | --- | --- |
| LY1 ORF1 ΔC-term (1-609) (domain or fragment) | 60 | – |
| LY1 ΔARM fragment (ORF1 with residues 2-45 deleted, C-terminus removed by proteolysis in insect cells) (domain or fragment) | – | 60 |
